Test results taken from article PMC2756588.

T1: Cyk3, Q07533
T1 sequence (Q07533 1-83, looked up): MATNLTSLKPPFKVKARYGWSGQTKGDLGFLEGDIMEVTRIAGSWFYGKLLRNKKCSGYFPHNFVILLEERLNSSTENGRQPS

T2: Cdc25, P04821
T2 sequence (P04821 50-136, looked up): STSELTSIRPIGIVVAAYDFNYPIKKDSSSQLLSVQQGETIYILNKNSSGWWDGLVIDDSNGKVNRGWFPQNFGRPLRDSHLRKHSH

T3: Lsb1, P53281
T3 sequence (P53281 45-122, looked up): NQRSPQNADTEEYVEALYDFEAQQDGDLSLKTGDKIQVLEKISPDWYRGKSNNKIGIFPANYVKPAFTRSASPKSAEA

T4: Bzz1-2, P38822
T4 sequence (P38822 568-633, looked up): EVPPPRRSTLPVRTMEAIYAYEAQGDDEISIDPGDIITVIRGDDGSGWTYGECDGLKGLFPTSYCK

T5: Abp1, P15891
T5 sequence (P15891 535-592, looked up): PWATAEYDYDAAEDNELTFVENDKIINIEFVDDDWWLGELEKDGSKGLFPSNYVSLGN

T6: Fus1, P11710
T6 sequence (P11710 432-512, looked up): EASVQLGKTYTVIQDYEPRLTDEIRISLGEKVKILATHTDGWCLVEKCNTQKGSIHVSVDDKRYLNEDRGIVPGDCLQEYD

T7: Lsb4, P32793
T7 sequence (P32793 402-468, looked up): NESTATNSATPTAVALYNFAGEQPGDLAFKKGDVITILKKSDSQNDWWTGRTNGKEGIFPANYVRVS

T8: Sla1-3, P32790
T8 sequence (P32790 344-424, looked up): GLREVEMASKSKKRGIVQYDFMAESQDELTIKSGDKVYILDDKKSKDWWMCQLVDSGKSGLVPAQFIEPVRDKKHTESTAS

T9: Bzz1-1, P38822
T9 sequence (P38822 478-572, looked up): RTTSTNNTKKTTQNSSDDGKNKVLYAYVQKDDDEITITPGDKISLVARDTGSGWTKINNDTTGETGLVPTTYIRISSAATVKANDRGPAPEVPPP

T10: Sla1-2, P32790
T10 sequence (P32790 60-140, looked up): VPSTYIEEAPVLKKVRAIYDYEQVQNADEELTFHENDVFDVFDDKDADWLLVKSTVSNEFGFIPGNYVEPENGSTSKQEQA

T11: Boi2, P39969
T11 sequence (P39969 32-116, looked up): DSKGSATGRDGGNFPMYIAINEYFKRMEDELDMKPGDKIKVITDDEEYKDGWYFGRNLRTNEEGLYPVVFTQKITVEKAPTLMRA

T12: Bud14, P27637
T12 sequence (P27637 247-328, looked up): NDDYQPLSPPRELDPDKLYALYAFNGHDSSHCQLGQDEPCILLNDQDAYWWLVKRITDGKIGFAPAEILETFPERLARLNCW

T13: Nbp2, Q12163
T13 sequence (Q12163 103-180, looked up): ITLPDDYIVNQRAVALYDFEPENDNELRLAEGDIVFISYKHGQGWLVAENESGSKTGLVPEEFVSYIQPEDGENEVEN

T14: Pin3, Q06449
T14 sequence (Q06449 53-122, looked up): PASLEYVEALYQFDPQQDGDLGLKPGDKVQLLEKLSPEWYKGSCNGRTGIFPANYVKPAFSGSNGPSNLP

T15: Myo5, Q04439
T15 sequence (Q04439 1072-1160, looked up): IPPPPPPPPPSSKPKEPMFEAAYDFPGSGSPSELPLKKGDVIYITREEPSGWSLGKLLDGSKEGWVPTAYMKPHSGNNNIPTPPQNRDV

T16: Lsb3, P43603
T16 sequence (P43603 385-451, looked up): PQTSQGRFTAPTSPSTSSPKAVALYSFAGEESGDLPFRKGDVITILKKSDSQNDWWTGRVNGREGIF

T17: Bbc1, P47068
T17 sequence (P47068 1-78, looked up): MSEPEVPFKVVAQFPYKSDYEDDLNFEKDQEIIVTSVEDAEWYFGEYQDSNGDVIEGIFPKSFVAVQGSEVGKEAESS

T18: Pex13, P80667
T18 sequence (P80667 295-386, looked up): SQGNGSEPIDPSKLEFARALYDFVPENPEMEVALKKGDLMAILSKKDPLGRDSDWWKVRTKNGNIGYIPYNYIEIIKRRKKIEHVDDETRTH

T19: Hse1, P38753
T19 sequence (P38753 208-285, looked up): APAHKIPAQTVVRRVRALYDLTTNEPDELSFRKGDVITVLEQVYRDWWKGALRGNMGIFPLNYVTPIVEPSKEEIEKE

T20: Boi1, P38041
T20 sequence (P38041 1-86, looked up): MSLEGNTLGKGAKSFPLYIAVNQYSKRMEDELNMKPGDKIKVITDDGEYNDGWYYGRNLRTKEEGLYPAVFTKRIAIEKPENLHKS

T21: Hof1, Q05080
T21 sequence (Q05080 590-669, looked up): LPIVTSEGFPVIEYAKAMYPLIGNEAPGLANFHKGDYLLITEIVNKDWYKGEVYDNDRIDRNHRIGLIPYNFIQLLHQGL


Experiments:
Assay in all cases: SPOT array
Myo3, P36006 = details: median of control spots 468
Sho1, P40073 = details: median of control spots 1148
Cyk3, Q07533 = target: T1, Cyk3, Q07533; details: median of control spots 1451
Bem1-1, P29366 = details: median of control spots 4282
Cdc25, P04821 = target: T2, Cdc25, P04821; details: median of control spots 969
GST = details: median of control spots 978
Lsb1, P53281 = target: T3, Lsb1, P53281; details: median of control spots 388
Bzz1-2, P38822 = target: T4, Bzz1-2, P38822; details: median of control spots 4538
Bem1-2, P29366 = details: median of control spots 4347
Abp1, P15891 = target: T5, Abp1, P15891; details: median of control spots 935
Fus1, P11710 = target: T6, Fus1, P11710; details: median of control spots 1200
Lsb4, P32793 = target: T7, Lsb4, P32793; details: median of control spots 397
Sla1-3, P32790 = target: T8, Sla1-3, P32790; details: median of control spots 5475
Bzz1-1, P38822 = target: T9, Bzz1-1, P38822; details: median of control spots 4446
Sla1-2, P32790 = target: T10, Sla1-2, P32790; details: median of control spots 712
Boi2, P39969 = target: T11, Boi2, P39969; details: median of control spots 1161
Bud14, P27637 = target: T12, Bud14, P27637; details: median of control spots 956
Nbp2, Q12163 = target: T13, Nbp2, Q12163; details: median of control spots 357
Pin3, Q06449 = target: T14, Pin3, Q06449; details: median of control spots 2171
Myo5, Q04439 = target: T15, Myo5, Q04439; details: median of control spots 471
Lsb3, P43603 = target: T16, Lsb3, P43603; details: median of control spots 406
Bbc1, P47068 = target: T17, Bbc1, P47068; details: median of control spots 796
Pex13, P80667 = target: T18, Pex13, P80667; details: median of control spots 1341
Hse1, P38753 = target: T19, Hse1, P38753; details: median of control spots 1727
Rvs167, P39743 = details: median of control spots 2707
Boi1, P38041 = target: T20, Boi1, P38041; details: median of control spots 1162
Hof1, Q05080 = target: T21, Hof1, Q05080; details: median of control spots 4086

Sequence of Bem1-1, P29366 (P29366 55-141): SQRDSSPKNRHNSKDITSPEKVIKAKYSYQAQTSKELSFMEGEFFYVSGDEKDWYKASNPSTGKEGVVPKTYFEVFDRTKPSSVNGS
Sequence of Rvs167, P39743 (P39743 419-482): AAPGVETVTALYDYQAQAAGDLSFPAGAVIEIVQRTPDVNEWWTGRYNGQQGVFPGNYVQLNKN
Sequence of Bem1-2, P29366 (P29366 139-227): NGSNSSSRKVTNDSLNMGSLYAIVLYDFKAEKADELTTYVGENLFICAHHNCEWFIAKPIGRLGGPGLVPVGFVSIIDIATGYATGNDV
Sequence of Sho1, P40073 (P40073 287-367): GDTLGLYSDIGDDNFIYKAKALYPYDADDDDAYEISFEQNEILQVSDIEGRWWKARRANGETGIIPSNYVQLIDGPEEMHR

Binder	SPOT intensity (Myo3, P36006)	SPOT intensity (Sho1, P40073)	SPOT intensity (Cyk3, Q07533)	SPOT intensity (Bem1-1, P29366)	SPOT intensity (Cdc25, P04821)	SPOT intensity (GST)	SPOT intensity (Lsb1, P53281)	SPOT intensity (Bzz1-2, P38822)	SPOT intensity (Bem1-2, P29366)	SPOT intensity (Abp1, P15891)	SPOT intensity (Fus1, P11710)	SPOT intensity (Lsb4, P32793)	SPOT intensity (Sla1-3, P32790)	SPOT intensity (Bzz1-1, P38822)	SPOT intensity (Sla1-2, P32790)	SPOT intensity (Boi2, P39969)	SPOT intensity (Bud14, P27637)	SPOT intensity (Nbp2, Q12163)	SPOT intensity (Pin3, Q06449)	SPOT intensity (Myo5, Q04439)	further results
FPGKKSPRLPHRNKK	0	84	3	0	35	1	5	5	0	175	0	225	12	0	0	0	22	0	0	0	SPOT intensity (Lsb3, P43603): 155; SPOT intensity (Bbc1, P47068): 13; SPOT intensity (Pex13, P80667): 16; SPOT intensity (Hse1, P38753): 8; SPOT intensity (Rvs167, P39743): 314; SPOT intensity (Boi1, P38041): 7; SPOT intensity (Hof1, Q05080): 1
AAAPKHAPPPVPNET	557	0	0	0	0	0	0	0	84	0	0	0	0	0	0	0	0	0	0	376	SPOT intensity (Lsb3, P43603): 0; SPOT intensity (Bbc1, P47068): 0; SPOT intensity (Pex13, P80667): 0; SPOT intensity (Hse1, P38753): 13; SPOT intensity (Rvs167, P39743): 0; SPOT intensity (Boi1, P38041): 0; SPOT intensity (Hof1, Q05080): 0
APKHAPPPVPNETDN	497	0	0	0	0	0	0	0	0	0	0	0	0	0	0	0	0	0	0	239	SPOT intensity (Lsb3, P43603): 0; SPOT intensity (Bbc1, P47068): 0; SPOT intensity (Pex13, P80667): 0; SPOT intensity (Hse1, P38753): 3; SPOT intensity (Rvs167, P39743): 0; SPOT intensity (Boi1, P38041): 0; SPOT intensity (Hof1, Q05080): 0
TEVPIPRRPPPPQAA	367	0	0	3	0	3	0	0	0	0	0	108	0	12	0	0	0	0	0	141	SPOT intensity (Lsb3, P43603): 46; SPOT intensity (Bbc1, P47068): 3; SPOT intensity (Pex13, P80667): 0; SPOT intensity (Hse1, P38753): 0; SPOT intensity (Rvs167, P39743): 0; SPOT intensity (Boi1, P38041): 0; SPOT intensity (Hof1, Q05080): 0
